{"source": "paper PMC10197177", "test_system": "BG4 (anti-G-quadruplex antibody)", "test": "sandwich ELISA", "settings": "K1 pre-bound to immobilized wild-type spike, ELONA: 20 mM Tris, 5 mM KCl, 2 mM MgCl2, 0.5 mM CaCl2, pH 7.4, room temperature, BG4 sandwich ELISA: Methods give 20 mM Tris, 5 mM MgCl2 …", "data": [{"sequence": "AATGGATCCACATCTACGAGCTCGAACGCCCGGAGGAGACGGGGGCAGGGCGTGTTCACTGCAGACTTGACGAAGCT [K1 (truncated working aptamer)]", "values": [{"measurement": "Kd", "value": 1.77, "unit": "nM"}]}]}
